Experimental findings from paper PMC11953334, “Substrates bind to residues lining the ring of asymmetrically engaged bacterial proteasome activator Bpa” (Nature Communications, 2025) are described below.

For the assay, the target named is bacterial proteasome activator Bpa, full-length, wild-type (M. tuberculosis H37Rv) (UniProt P9WKX3). Description: MST.

In turn, “heat shock repressor HspR, wild-type (natural protein)” registered an equilibrium dissociation constant (Kd) of 4.3 µM.
